# Reference: the Human Domainome abundance scans (Beltran et al. 2025)
# ± gives the uncertainty stated by the source.
# B1: Peripheral plasma membrane protein CASK, residues 488 to 569; numbered along this chain, O14936 (parent)
# chain: VRLVQFQKNTDEPMGITLKMNELNHCIVARIMHGGMIHRQGTLHVGDEIREINGISVANQTVEQLQKMLREMRGSITFKIVP
# Variants of: B1
# Assay: abundance fitness (aPCA) (normalised: wild type 0, dead -1); higher = more abundant; growth selection in yeast, the domain comes from the species named
# Details: Homo sapiens
row,Variant,abundance fitness
1,VRLVQFQKNTDEPMGETLKMNELNHCIVARIMHGGMIHRQGTLHVGDEIREINGISVANQTVEQLQKMLREMRGSITFKIVP [I16E],-0.932 ± 0.13
2,VRLVQFQKNTDEPMGITLKMNELNHCIVARIMHGGMIHRQGTLHKGDEIREINGISVANQTVEQLQKMLREMRGSITFKIVP [V45K],-0.207 ± 0.083
3,VRLVQFQKNTDEPMGITLKMNELNHCIVARIMHGGMIHRQGTLHHGDEIREINGISVANQTVEQLQKMLREMRGSITFKIVP [V45H],0.016 ± 0.18
4,VRLVQFQKNTDEPMGITLKMCELNHCIVARIMHGGMIHRQGTLHVGDEIREINGISVANQTVEQLQKMLREMRGSITFKIVP [N21C],-0.201 ± 0.042
5,VRVVQFQKNTDEPMGITLKMNELNHCIVARIMHGGMIHRQGTLHVGDEIREINGISVANQTVEQLQKMLREMRGSITFKIVP [L3V],0.002 ± 0.026
6,VRLVQFQKNTREPMGITLKMNELNHCIVARIMHGGMIHRQGTLHVGDEIREINGISVANQTVEQLQKMLREMRGSITFKIVP [D11R],-0.023 ± 0.029
7,VRLVQFQKNTDEPMGITLKMNELNHCIIARIMHGGMIHRQGTLHVGDEIREINGISVANQTVEQLQKMLREMRGSITFKIVP [V28I],0.03 ± 0.041
8,VRLVQFQKNTDEPMGITLKMNELNHCILARIMHGGMIHRQGTLHVGDEIREINGISVANQTVEQLQKMLREMRGSITFKIVP [V28L],-0.424 ± 0.03
9,VRLVQFQKNTDEPMGITLKMNELNHCIVARIEHGGMIHRQGTLHVGDEIREINGISVANQTVEQLQKMLREMRGSITFKIVP [M32E],0.04 ± 0.037
10,VRLVQFQKNTDEPMGITLKMNELNHCIVARIMHGGMIHRQGTLHVGDEIREINGISVARQTVEQLQKMLREMRGSITFKIVP [N59R],-0.09 ± 0.023
11,VRLVQFQKNTDEPMGITLKMNELNHCIVARIMHGGMIHRQGTLHVGDEIREINGISVAEQTVEQLQKMLREMRGSITFKIVP [N59E],-0.001 ± 0.028
12,VRLVQFQKNTDEPMGITLKMNELNHCIVARIMHGGMIHRQGTLHVGDEIREINGISVAQQTVEQLQKMLREMRGSITFKIVP [N59Q],-0.09 ± 0.04
13,VRLVQFQKNTDEPMGITLKMNELNHCIVARIMHGGMIHRQGTLHVGDEIREINGQSVANQTVEQLQKMLREMRGSITFKIVP [I55Q],0.035 ± 0.028
14,VRLVQFQKNNDEPMGITLKMNELNHCIVARIMHGGMIHRQGTLHVGDEIREINGISVANQTVEQLQKMLREMRGSITFKIVP [T10N],-0.075 ± 0.061
15,VRLVQFQKNTDEPMGITLKMNELNHCIVARIMHGGMIHQQGTLHVGDEIREINGISVANQTVEQLQKMLREMRGSITFKIVP [R39Q],-0.024 ± 0.031
16,VRLVQFQKNTDEPMGITLKMNELNHCIVCRIMHGGMIHRQGTLHVGDEIREINGISVANQTVEQLQKMLREMRGSITFKIVP [A29C],-0.279 ± 0.064
17,VRLVQFQKNTDEPMGITLKMNELNHCIVARIMHGGMIHRQGTLHVGDEIREINGISVANQTVEQLQKMLREMRGSITFNIVP [K79N],-0.091 ± 0.05

row,Variant,abundance fitness
1,VRLVQFQKNTDEPMGITLKMNELNHCIVARIMHGGMIHRQGTLNVGDEIREINGISVANQTVEQLQKMLREMRGSITFKIVP [H44N],-0.029 ± 0.037
2,VRLVQFQKNTDEPMGITLKMNELNHCIVARIMHGGMIHRQGTLMVGDEIREINGISVANQTVEQLQKMLREMRGSITFKIVP [H44M],-0.024 ± 0.03
3,VRLVQFQKNTDEPMGITLKMNELNHCIVARIMHGGMIHRQGTLFVGDEIREINGISVANQTVEQLQKMLREMRGSITFKIVP [H44F],-0.125 ± 0.04
4,VRLVQFQYNTDEPMGITLKMNELNHCIVARIMHGGMIHRQGTLHVGDEIREINGISVANQTVEQLQKMLREMRGSITFKIVP [K8Y],-0.093 ± 0.043
5,VRLVQFQKNTDEPMGITLKMNELNHCIVARIMLGGMIHRQGTLHVGDEIREINGISVANQTVEQLQKMLREMRGSITFKIVP [H33L],-0.119 ± 0.028
6,VRLVQFQKNTDEPMGITLKMNELNHCIVARIMHGDMIHRQGTLHVGDEIREINGISVANQTVEQLQKMLREMRGSITFKIVP [G35D],-0.236 ± 0.043
7,VRLVQFQKNTDEPMGITLKMNELNHCIVARIMHGGMIHRQGTLHVGDEIREINGISVANQTVEQLQKMLREMRGSMTFKIVP [I76M],-0.082 ± 0.049
8,VRLVQFQKNTDEPMGITLKMNELNHCIVARIMHGGMIHRQGTLHVGDEWREINGISVANQTVEQLQKMLREMRGSITFKIVP [I49W],-1.04 ± 0.17
9,VRLVQFQKNTDEPMGITLKMNELNHCIVARIMHGGMIHRQGTLHVGDERREINGISVANQTVEQLQKMLREMRGSITFKIVP [I49R],-0.858 ± 0.073
10,VRLVQFQKNTDEPMGITLKMNELNHCIVARIMHGGMIHRQGTLHVGDEIREINGISVANQLVEQLQKMLREMRGSITFKIVP [T61L],-0.41 ± 0.029
11,VRLVQFQKNTDEPMGITLKMNELNHCIVARIMHGGMIHRQGTLHVGDEIREINGISVANQCVEQLQKMLREMRGSITFKIVP [T61C],-0.129 ± 0.031
12,VRLVQFQKNTDEPMGITLKMNELNHCFVARIMHGGMIHRQGTLHVGDEIREINGISVANQTVEQLQKMLREMRGSITFKIVP [I27F],-0.08 ± 0.037
13,VRLVQFQKNTDEPMGITLKMNELNHCPVARIMHGGMIHRQGTLHVGDEIREINGISVANQTVEQLQKMLREMRGSITFKIVP [I27P],-0.883 ± 0.067
14,VRLVQFQKNTDEPMGITLKMNELNHCIVARIMHGGMIHRQGTLHVGDEIREINGISVANQTVEQLQKMLLEMRGSITFKIVP [R70L],0 ± 0.024
15,VRLVQFQKNTDEPMGITLKMNELNHCIVARIMHGGMIHRQGTLHVGDEIREINGISVANQTVEQLQKMLNEMRGSITFKIVP [R70N],-0.024 ± 0.041
16,VRLVQFQKNTDEPMGITLKMNELNHCIVARIMHGGMIHRQGTLHVGDEIREINGISVANQTVEQLQKMLREMRGSITFKIVC [P82C],-0.072 ± 0.093
17,VRLVQFQKNTDEPMGITLKMNELNHCIVARIMHGGMIHRQGTLHVGDEIREINGISVANQTVEQLQKMLREMRGSITFKNVP [I80N],-0.836 ± 0.14
